Measured values: article PMC7155755, “Binding of the Human 14-3-3 Isoforms to Distinct Sites in the Leucine-Rich Repeat Kinase 2” (Frontiers in Neuroscience, 2020)
Read-outs that look alike come from different tables or passages of the source. Square brackets hold non-standard residues; d marks the D form. Ends that are not written are not given here. fluorescein = N-terminal fluorescein label; pT = C[C@@H](OP(=O)(O)O)[C@H](N)C(=O)O

Key:
14-3-3η = 14-3-3η (UniProt Q04917); assay: fluorescence polarization direct binding; details: reference: unphosphorylated T2524 peptide; sites T2524
14-3-3ζ = 14-3-3ζ (UniProt P63104); assay: fluorescence polarization direct binding; details: reference: unphosphorylated T2524 peptide; sites T2524
14-3-3σ = 14-3-3σ (UniProt P31947); assay: fluorescence polarization direct binding; details: reference: unphosphorylated T2524 peptide; sites T2524
14-3-3ε = 14-3-3ε (UniProt P62258); assay: fluorescence polarization direct binding; details: reference: unphosphorylated T2524 peptide; sites T2524
14-3-3β = 14-3-3β (UniProt P31946); assay: fluorescence polarization direct binding; details: reference: unphosphorylated T2524 peptide; sites T2524
14-3-3θ = 14-3-3θ (UniProt P27348); assay: fluorescence polarization direct binding; details: reference: unphosphorylated T2524 peptide; sites T2524
14-3-3γ = 14-3-3γ (UniProt P61981); assay: fluorescence polarization direct binding; details: reference: unphosphorylated T2524 peptide; sites T2524
pS910/pS935 [1] = assay: fluorescence polarisation; direct binding; dilution series of 14-3-3 isoform (at least 5 μM down to picomolar) mixed with 1 nM fluorescein-labelled peptide; 20 mM MOPS pH 7, 150 mM NaCl, 0.005% CHAPS; 384-well plates
Chain of pS910/pS935 (Q5S007 906-940): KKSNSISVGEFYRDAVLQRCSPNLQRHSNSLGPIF

pS910/pS935 [2] = assay: as above; remark: listed apart in the source
pS1444 = assay: as above
Q930R/pS935 = assay: as above
R1441C/pS1444 = biological target: T1, R1441C/pS1444 (R1441C (stands in the printed letters)); assay: as above
T1 construct: LRRK2-derived peptide of the Roc domain with the familial PD mutation R1441C, phosphorylated at S1444; source: synthetic peptide (Peps4LS GmbH)
T1 peptide: fluorescein-LFNIKACAS[pS]SPVILVGT

[3] = biological target: T2, human 14-3-3 isoform σ (recombinant, MBP tag removed) (human, UniProt P31947 1-248); assay: as above; details: both partners purified
T2 construct: 14-3-3 sigma, human; Expressed from pMAL2CX plasmids; also called 14-3-3σ; source: E. coli BL21DE3, purified (maltose-agarose, Factor Xa, anion exchange)
T2 sequence (looked up): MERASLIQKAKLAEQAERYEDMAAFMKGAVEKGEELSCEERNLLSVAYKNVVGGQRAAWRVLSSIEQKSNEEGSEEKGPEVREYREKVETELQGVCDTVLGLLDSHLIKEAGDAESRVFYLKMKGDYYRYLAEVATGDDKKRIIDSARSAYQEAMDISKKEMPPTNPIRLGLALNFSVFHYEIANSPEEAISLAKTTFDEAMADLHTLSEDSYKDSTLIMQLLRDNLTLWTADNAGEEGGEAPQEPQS

[4] = biological target: T3, human 14-3-3 isoform η (recombinant, MBP tag removed) (human, UniProt Q04917 1-246); assay: as above; details: both partners purified
T3 construct: 14-3-3 eta, human; Expressed from pMAL2CX plasmids; also called 14-3-3η; source: E. coli BL21DE3, purified (maltose-agarose, Factor Xa, anion exchange)
T3 sequence (looked up): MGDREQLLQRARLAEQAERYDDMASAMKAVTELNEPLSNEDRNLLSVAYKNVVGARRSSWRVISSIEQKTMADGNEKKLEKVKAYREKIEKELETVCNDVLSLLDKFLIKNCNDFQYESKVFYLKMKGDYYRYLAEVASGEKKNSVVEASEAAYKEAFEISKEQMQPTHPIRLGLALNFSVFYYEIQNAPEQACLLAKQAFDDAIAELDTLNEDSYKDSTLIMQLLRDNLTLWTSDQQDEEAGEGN

[5] = biological target: T4, human 14-3-3 isoform ε (recombinant, MBP tag removed) (human, UniProt P62258 1-255); assay: as above; details: both partners purified
T4 construct: 14-3-3 epsilon, human; Expressed from pMAL2CX plasmids; also called 14-3-3ε; source: E. coli BL21DE3, purified (maltose-agarose, Factor Xa, anion exchange)
T4 sequence (looked up): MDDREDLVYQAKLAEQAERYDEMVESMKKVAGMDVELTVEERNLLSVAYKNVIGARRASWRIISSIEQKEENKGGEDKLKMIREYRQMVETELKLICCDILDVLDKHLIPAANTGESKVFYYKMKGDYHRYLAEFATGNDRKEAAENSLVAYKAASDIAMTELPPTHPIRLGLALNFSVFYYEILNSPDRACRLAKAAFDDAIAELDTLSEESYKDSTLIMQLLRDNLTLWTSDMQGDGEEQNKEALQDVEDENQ

[6] = biological target: T5, human 14-3-3 isoform ζ (recombinant, MBP tag removed) (human, UniProt P63104 1-245); assay: as above; details: both partners purified
T5 construct: 14-3-3 zeta, human; Expressed from pMAL2CX plasmids; also called 14-3-3ζ; source: E. coli BL21DE3, purified (maltose-agarose, Factor Xa, anion exchange)
T5 sequence (looked up): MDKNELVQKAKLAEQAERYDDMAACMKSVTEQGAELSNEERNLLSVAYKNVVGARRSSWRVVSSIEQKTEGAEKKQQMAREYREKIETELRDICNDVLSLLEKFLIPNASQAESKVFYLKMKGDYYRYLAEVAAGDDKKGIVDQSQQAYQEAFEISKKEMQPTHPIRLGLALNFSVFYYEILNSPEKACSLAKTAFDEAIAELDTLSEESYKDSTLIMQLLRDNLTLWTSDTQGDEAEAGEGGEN

[7] = biological target: T6, human 14-3-3 isoform β (recombinant, MBP tag removed) (human, UniProt P31946 1-246); assay: as above; details: both partners purified
T6 construct: 14-3-3 beta, human; Expressed from pMAL2CX plasmids; also called 14-3-3β; source: E. coli BL21DE3, purified (maltose-agarose, Factor Xa, anion exchange)
T6 sequence (looked up): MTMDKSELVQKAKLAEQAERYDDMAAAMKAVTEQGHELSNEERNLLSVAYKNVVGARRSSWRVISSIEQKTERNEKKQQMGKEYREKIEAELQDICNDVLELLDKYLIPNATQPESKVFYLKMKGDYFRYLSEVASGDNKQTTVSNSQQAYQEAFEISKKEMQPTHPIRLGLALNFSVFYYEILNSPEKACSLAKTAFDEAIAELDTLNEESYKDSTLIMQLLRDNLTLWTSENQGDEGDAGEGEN

[8] = biological target: T7, human 14-3-3 isoform θ (recombinant, MBP tag removed) (human, UniProt P27348 1-245); assay: as above; details: both partners purified
T7 construct: 14-3-3 theta, human; Expressed from pMAL2CX plasmids; also called 14-3-3θ; source: E. coli BL21DE3, purified (maltose-agarose, Factor Xa, anion exchange)
T7 sequence (looked up): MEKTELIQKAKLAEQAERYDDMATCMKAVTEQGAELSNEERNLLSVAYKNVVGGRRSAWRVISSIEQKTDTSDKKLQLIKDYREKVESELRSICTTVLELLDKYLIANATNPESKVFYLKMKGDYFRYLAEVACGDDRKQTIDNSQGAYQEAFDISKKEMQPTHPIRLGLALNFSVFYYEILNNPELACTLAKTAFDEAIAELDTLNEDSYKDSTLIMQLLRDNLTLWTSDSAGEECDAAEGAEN

[9] = biological target: LRRK2 pS910/pS935 peptide (Homo sapiens, UniProt Q5S007)
Chain of LRRK2 pS910/pS935 peptide (Q5S007 whole entry): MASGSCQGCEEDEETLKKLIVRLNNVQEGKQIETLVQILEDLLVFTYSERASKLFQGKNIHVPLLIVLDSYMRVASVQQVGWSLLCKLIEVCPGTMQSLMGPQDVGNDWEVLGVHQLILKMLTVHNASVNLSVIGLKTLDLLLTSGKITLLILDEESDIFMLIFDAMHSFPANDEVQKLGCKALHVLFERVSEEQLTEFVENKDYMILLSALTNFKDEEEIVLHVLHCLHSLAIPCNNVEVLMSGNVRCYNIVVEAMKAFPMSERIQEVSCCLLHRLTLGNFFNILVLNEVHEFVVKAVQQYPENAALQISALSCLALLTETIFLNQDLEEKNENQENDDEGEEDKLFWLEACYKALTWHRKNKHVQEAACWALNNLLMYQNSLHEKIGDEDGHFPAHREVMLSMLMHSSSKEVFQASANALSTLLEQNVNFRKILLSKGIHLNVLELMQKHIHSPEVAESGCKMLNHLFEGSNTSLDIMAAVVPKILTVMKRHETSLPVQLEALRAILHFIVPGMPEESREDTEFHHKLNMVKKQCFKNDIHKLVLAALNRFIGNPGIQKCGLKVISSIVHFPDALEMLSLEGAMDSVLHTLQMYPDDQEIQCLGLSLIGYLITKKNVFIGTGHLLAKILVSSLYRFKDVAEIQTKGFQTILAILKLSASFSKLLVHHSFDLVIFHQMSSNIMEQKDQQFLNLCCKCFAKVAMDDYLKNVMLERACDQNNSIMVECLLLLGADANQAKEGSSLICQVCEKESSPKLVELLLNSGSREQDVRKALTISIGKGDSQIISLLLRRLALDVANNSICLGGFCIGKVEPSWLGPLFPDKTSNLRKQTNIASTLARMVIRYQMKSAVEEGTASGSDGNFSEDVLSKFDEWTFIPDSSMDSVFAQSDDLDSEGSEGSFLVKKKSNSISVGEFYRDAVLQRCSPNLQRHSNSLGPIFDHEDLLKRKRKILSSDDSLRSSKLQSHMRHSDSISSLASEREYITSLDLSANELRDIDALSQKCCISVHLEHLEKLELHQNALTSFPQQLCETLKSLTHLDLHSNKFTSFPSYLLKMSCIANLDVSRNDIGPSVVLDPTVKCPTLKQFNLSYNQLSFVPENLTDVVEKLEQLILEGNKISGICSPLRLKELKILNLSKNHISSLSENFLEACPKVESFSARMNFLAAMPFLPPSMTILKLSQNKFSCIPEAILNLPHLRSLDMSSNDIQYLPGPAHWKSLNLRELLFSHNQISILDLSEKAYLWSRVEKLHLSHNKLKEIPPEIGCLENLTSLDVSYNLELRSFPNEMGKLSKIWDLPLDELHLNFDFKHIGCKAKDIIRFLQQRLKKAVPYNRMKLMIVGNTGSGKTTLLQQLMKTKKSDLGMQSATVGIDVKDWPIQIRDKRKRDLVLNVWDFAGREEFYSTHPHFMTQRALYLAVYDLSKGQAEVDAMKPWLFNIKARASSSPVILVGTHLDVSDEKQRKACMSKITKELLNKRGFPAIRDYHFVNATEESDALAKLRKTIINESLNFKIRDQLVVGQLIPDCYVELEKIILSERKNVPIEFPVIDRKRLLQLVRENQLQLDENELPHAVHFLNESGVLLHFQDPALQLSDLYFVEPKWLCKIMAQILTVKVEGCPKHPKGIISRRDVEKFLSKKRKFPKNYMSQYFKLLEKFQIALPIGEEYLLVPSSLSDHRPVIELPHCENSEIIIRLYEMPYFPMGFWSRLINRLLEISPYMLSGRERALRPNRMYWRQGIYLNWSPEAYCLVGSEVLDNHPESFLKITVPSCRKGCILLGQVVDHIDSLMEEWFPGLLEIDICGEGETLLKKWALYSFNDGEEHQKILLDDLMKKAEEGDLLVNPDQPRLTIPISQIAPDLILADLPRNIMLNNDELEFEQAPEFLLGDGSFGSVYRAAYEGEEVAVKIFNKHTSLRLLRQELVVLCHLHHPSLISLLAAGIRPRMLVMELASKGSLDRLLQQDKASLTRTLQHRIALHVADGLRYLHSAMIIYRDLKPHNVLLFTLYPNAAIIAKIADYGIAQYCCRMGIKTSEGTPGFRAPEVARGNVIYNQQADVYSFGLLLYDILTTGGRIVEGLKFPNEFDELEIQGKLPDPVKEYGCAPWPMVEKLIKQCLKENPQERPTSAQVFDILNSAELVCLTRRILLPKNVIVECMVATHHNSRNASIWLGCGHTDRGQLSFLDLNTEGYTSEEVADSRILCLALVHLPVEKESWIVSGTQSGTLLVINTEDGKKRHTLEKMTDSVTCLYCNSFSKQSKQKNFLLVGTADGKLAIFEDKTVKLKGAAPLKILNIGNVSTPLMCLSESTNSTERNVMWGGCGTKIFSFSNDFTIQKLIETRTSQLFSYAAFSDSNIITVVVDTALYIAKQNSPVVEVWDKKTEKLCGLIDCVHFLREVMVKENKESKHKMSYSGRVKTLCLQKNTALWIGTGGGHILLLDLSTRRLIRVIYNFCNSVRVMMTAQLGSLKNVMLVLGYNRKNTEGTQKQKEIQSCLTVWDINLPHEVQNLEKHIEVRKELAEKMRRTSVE

## LRRK2 (leucine-rich repeat kinase 2) C-terminus (from UniProt Q5S007) pT2524 peptide
14-3-3η
  binding against the reference: gained
14-3-3ζ
  binding against the reference: gained
14-3-3σ
  binding against the reference: gained
14-3-3ε
  binding against the reference: gained
14-3-3β
  binding against the reference: gained
14-3-3θ
  binding against the reference: gained
14-3-3γ
  binding against the reference: gained

## human 14-3-3 isoform γ (recombinant, MBP tag removed) (from UniProt P61981 1-247) (natural protein)
pS910/pS935 [1]
  Kd: 4.8 nM
pS910/pS935 [2]
  Kd: 3.2 nM
pS1444
  Kd: 106 nM
Q930R/pS935
  Kd: 11.1 nM
R1441C/pS1444
  fold decrease in affinity against pS1444: > 30 fold

B1: pT2524 (peptide)
peptide: fluorescein-HIEVRKELAEKMRR[pT]SVE
notes: LRRK2-derived peptide of the very C-terminus, phosphorylated at T2524; source: synthetic peptide (Peps4LS GmbH)
[3]
  binding result: binds
[4]
  binding result: binds
[5]
  binding result: binds
[6]
  binding result: binds
[7]
  binding result: binds
[8]
  binding result: binds

B2: 14-3-3σ (protein)
chain: T2 sequence (looked up)
modifications: pS910+pS935
[9]
  Kd: 61 nM
